Measurements from PMC9650030, “The RNA repair proteins RtcAB regulate transcription activator RtcR via its CRISPR-associated Rossmann fold domain” (iScience, 2022).

Key:
[1] = biological target: MBP-RtcR (wild-type, full-length RtcR N-terminally tagged with maltose binding protein) (Escherichia coli) (UniProt P38035); test: MST; RED-NHS-labelled MBP-RtcRWT or RtcR_(ΔCARF) (diluted to 50 nM, mixed with an equal volume) against a serial dilution of RtcA or RtcB; 24°C; modified PBS (250 mM NaCl) with 0.05% Tween-20; fitted with the Hill equation
[2] = biological target: T1, MBP-RtcR (wild-type, full-length RtcR N-terminally tagged with maltose binding protein) (Escherichia coli, UniProt P38035 1-532, labelled with Monolith RED-NHS 2nd Generation dye (amine reactive) in the MST experiments only); test: as above; settings: both partners purified
T1 construct: also called RtcRWT; MBP-RtcRWT; not shown: MBP, N-terminal, kept
T1 sequence (looked up): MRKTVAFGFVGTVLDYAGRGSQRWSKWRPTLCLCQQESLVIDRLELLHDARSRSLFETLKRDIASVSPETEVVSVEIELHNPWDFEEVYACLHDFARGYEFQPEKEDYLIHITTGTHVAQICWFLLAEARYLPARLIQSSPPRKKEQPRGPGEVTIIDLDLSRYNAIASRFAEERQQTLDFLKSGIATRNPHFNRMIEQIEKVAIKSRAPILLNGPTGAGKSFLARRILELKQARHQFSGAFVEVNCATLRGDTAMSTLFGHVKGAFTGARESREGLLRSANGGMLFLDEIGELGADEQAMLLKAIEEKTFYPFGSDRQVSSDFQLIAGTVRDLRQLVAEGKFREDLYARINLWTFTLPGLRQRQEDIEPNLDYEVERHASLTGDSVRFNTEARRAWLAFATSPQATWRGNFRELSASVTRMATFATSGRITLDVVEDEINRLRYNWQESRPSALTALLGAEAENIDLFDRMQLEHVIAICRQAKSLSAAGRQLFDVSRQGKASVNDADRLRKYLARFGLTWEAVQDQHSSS

Work on “His-RtcB (N-terminal his-tagged RNA ligase RtcB) (from UniProt P46850 1-408) (enzyme)” yielded a Kd [1] of 14.5 µM.

B1: His-RtcA (N-terminal his-tagged RNA 3'-terminal phosphate cyclase RtcA) (enzyme, Escherichia coli, UniProt P46849 1-338, looked up)
chain: MKRMIALDGAQGEGGGQILRSALSLSMITGQPFTITSIRAGRAKPGLLRQHLTAVKAATEICGATVEGAELGSQRLLFRPGTVRGGDYRFAIGSAGSCTLVLQTVLPALWFADGPSRVEVSGGTDNPSAPPADFIRRVLEPLLAKIGIHQQTTLLRHGFYPAGGGVVATEVSPVASFNTLQLGERGNIVQMRGEVLLAGVPRHVAEREIATLAGSFSLHEQNIHNLPRDQGPGNTVSLEVESENITERFFVVGEKRVSAEVVAAQLVKEVKRYLASTAAVGEYLADQLVLPMALAGAGEFTVAHPSCHLLTNIAVVERFLPVRFSLIETDGVTRVSIE
notes: RtcA, RNA 3'-terminal phosphate cyclase, Escherichia coli; not shown: His tag, N-terminal, kept
With B1 the Kd [2] was roughly 5 µM.
